The test system of assay [1] is PPIs of the SKEMPI data set (by PDBID). Conditions: single mutation to alanine, sheet sortedByGroup, r_group FAMILYVW; ref SKEMPI; cited from earlier work.
Assay [2] shares this test system. Kind of assay: SKEMPI experimental ΔΔG, single mutations to alanine. The settings on record: class of the SKEMPI experimental ΔΔG. Type of assay: binding.

B1: 1AHW YC157A (protein, UniProt P13726 33-251, looked up, variant Y157A)
extracellular domain: SGTTNTVAAYNLTWKSTNFKTILEWEPKPVNQVYTVQISTKSGDWKSKCFYTTDTECDLTDEIVKDVKQTYLARVFSYPAGNVESTGSAGEPLYENSPEFTPYLETNLGQPTIQSFEQVGTKVNVTVEDERTLVRRNNTFLSLRDVFGKDLIYTLYAWKSSSSGKKTAKTNTNEFLIDVDKGENYCFSVQAVIPSRTVNRKSTDSPVECMGQEKGEFRE
modifications: extracellular domain
Regarding B1, the “sk_ddG_kJ (SKEMPI experimental ΔΔG)” value in assay [1] was -7.91 kJ. Besides, the sk_class entry in assay [2] is given as “Negative (negative (affinity enhancing) ΔΔG ≤ −4.184 kJ/mol)”.

B2: 1AHW LC176A (protein, UniProt P13726 33-251, looked up, variant L176A)
extracellular domain: SGTTNTVAAYNLTWKSTNFKTILEWEPKPVNQVYTVQISTKSGDWKSKCFYTTDTECDLTDEIVKDVKQTYLARVFSYPAGNVESTGSAGEPLYENSPEFTPYLETNLGQPTIQSFEQVGTKVNVTVEDERTLVRRNNTFLSLRDVFGKDLIYTLYYWKSSSSGKKTAKTNTNEFAIDVDKGENYCFSVQAVIPSRTVNRKSTDSPVECMGQEKGEFRE
modifications: extracellular domain
For the molecule B2, the “sk_ddG_kJ (SKEMPI experimental ΔΔG)” value in assay [1] was 4.14 kJ. In addition, in assay [2], the sk_class entry is reported as “Neutral (neutral (little effect) 4.184 kJ/mol < ΔΔG > −4.184 kJ/mol)”.

B3: 1AHW VC198A (protein, UniProt P13726 33-251, looked up, variant V198A)
extracellular domain: SGTTNTVAAYNLTWKSTNFKTILEWEPKPVNQVYTVQISTKSGDWKSKCFYTTDTECDLTDEIVKDVKQTYLARVFSYPAGNVESTGSAGEPLYENSPEFTPYLETNLGQPTIQSFEQVGTKVNVTVEDERTLVRRNNTFLSLRDVFGKDLIYTLYYWKSSSSGKKTAKTNTNEFLIDVDKGENYCFSVQAVIPSRTANRKSTDSPVECMGQEKGEFRE
modifications: extracellular domain
On to B3, for which, in assay [1], the “sk_ddG_kJ (SKEMPI experimental ΔΔG)” value is -1.30 kJ. Also, the sk_class result in assay [2] is given as “Neutral (neutral (little effect) 4.184 kJ/mol < ΔΔG > −4.184 kJ/mol)”.

B4: 1DAN VT36A (protein, UniProt P13726 33-251, looked up, variant V36A)
extracellular domain: SGTTNTVAAYNLTWKSTNFKTILEWEPKPVNQVYTAQISTKSGDWKSKCFYTTDTECDLTDEIVKDVKQTYLARVFSYPAGNVESTGSAGEPLYENSPEFTPYLETNLGQPTIQSFEQVGTKVNVTVEDERTLVRRNNTFLSLRDVFGKDLIYTLYYWKSSSSGKKTAKTNTNEFLIDVDKGENYCFSVQAVIPSRTVNRKSTDSPVECMGQEKGEFRE
modifications: extracellular domain
Regarding B4, the “sk_ddG_kJ (SKEMPI experimental ΔΔG)” value in assay [1] is listed as -0.54 kJ. Besides, the sk_class entry in assay [2] was “Neutral (neutral (little effect) 4.184 kJ/mol < ΔΔG > −4.184 kJ/mol)”.

B5: 1DAN WT45A (protein, UniProt P13726 33-251, looked up, variant W45A)
extracellular domain: SGTTNTVAAYNLTWKSTNFKTILEWEPKPVNQVYTVQISTKSGDAKSKCFYTTDTECDLTDEIVKDVKQTYLARVFSYPAGNVESTGSAGEPLYENSPEFTPYLETNLGQPTIQSFEQVGTKVNVTVEDERTLVRRNNTFLSLRDVFGKDLIYTLYYWKSSSSGKKTAKTNTNEFLIDVDKGENYCFSVQAVIPSRTVNRKSTDSPVECMGQEKGEFRE
modifications: extracellular domain
As for B5, the “sk_ddG_kJ (SKEMPI experimental ΔΔG)” value in assay [1] is given as 6.53 kJ. Besides, in assay [2], the sk_class result is recorded as “Positive (positive (a hot residue) ΔΔG ≥ 4.184 kJ/mol)”.

B6: 1DAN IT22A (protein, UniProt P13726 33-251, looked up, variant I22A)
extracellular domain: SGTTNTVAAYNLTWKSTNFKTALEWEPKPVNQVYTVQISTKSGDWKSKCFYTTDTECDLTDEIVKDVKQTYLARVFSYPAGNVESTGSAGEPLYENSPEFTPYLETNLGQPTIQSFEQVGTKVNVTVEDERTLVRRNNTFLSLRDVFGKDLIYTLYYWKSSSSGKKTAKTNTNEFLIDVDKGENYCFSVQAVIPSRTVNRKSTDSPVECMGQEKGEFRE
modifications: extracellular domain
With B6, in assay [1], the “sk_ddG_kJ (SKEMPI experimental ΔΔG)” value is reported as 2.72 kJ. The sk_class result in assay [2] was “Neutral (neutral (little effect) 4.184 kJ/mol < ΔΔG > −4.184 kJ/mol)”.

B7: 1DAN VT33A (protein, UniProt P13726 33-251, looked up, variant V33A)
extracellular domain: SGTTNTVAAYNLTWKSTNFKTILEWEPKPVNQAYTVQISTKSGDWKSKCFYTTDTECDLTDEIVKDVKQTYLARVFSYPAGNVESTGSAGEPLYENSPEFTPYLETNLGQPTIQSFEQVGTKVNVTVEDERTLVRRNNTFLSLRDVFGKDLIYTLYYWKSSSSGKKTAKTNTNEFLIDVDKGENYCFSVQAVIPSRTVNRKSTDSPVECMGQEKGEFRE
modifications: extracellular domain
Take B7: the “sk_ddG_kJ (SKEMPI experimental ΔΔG)” value in assay [1] was -0.79 kJ. Further, the sk_class result in assay [2] was “Neutral (neutral (little effect) 4.184 kJ/mol < ΔΔG > −4.184 kJ/mol)”.

B8: 1A4Y WA263A (protein, UniProt P13489 2-461, looked up, variant W263A)
Ribonuclease inhibitor: SLDIQSLDIQCEELSDARWAELLPLLQQCQVVRLDDCGLTEARCKDISSALRVNPALAELNLRSNELGDVGVHCVLQGLQTPSCKIQKLSLQNCCLTGAGCGVLSSTLRTLPTLQELHLSDNLLGDAGLQLLCEGLLDPQCRLEKLQLEYCSLSAASCEPLASVLRAKPDFKELTVSNNDINEAGVRVLCQGLKDSPCQLEALKLESCGVTSDNCRDLCGIVASKASLRELALGSNKLGDVGMAELCPGLLHPSSRLRTLWIAECGITAKGCGDLCRVLRAKESLKELSLAGNELGDEGARLLCETLLEPGCQLESLWVKSCSFTAACCSHFSSVLAQNRFLLELQISNNRLEDAGVRELCQGLGQPGSVLRVLWLADCDVSDSSCSSLAATLLANHSLRELDLSNNCLGDAGILQLVESVRQPGCLLEQLVLYDIYWSEEMEDRLQALEKDKPSLRVIS
Turning to B8, in assay [1], the “sk_ddG_kJ (SKEMPI experimental ΔΔG)” value is given as 4.85 kJ. Besides, the sk_class result in assay [2] was “Positive (positive (a hot residue) ΔΔG ≥ 4.184 kJ/mol)”.

B9: 1A4Y YA434A (protein, UniProt P13489 2-461, looked up, variant Y434A)
Ribonuclease inhibitor: SLDIQSLDIQCEELSDARWAELLPLLQQCQVVRLDDCGLTEARCKDISSALRVNPALAELNLRSNELGDVGVHCVLQGLQTPSCKIQKLSLQNCCLTGAGCGVLSSTLRTLPTLQELHLSDNLLGDAGLQLLCEGLLDPQCRLEKLQLEYCSLSAASCEPLASVLRAKPDFKELTVSNNDINEAGVRVLCQGLKDSPCQLEALKLESCGVTSDNCRDLCGIVASKASLRELALGSNKLGDVGMAELCPGLLHPSSRLRTLWIWECGITAKGCGDLCRVLRAKESLKELSLAGNELGDEGARLLCETLLEPGCQLESLWVKSCSFTAACCSHFSSVLAQNRFLLELQISNNRLEDAGVRELCQGLGQPGSVLRVLWLADCDVSDSSCSSLAATLLANHSLRELDLSNNCLGDAGILQLVESVRQPGCLLEQLVLADIYWSEEMEDRLQALEKDKPSLRVIS
Regarding B9, the “sk_ddG_kJ (SKEMPI experimental ΔΔG)” value in assay [1] is reported as 13.64 kJ. The sk_class entry in assay [2] is reported as “Positive (positive (a hot residue) ΔΔG ≥ 4.184 kJ/mol)”.

B10: 1A4Y YA437A (protein, UniProt P13489 2-461, looked up, variant Y437A)
Ribonuclease inhibitor: SLDIQSLDIQCEELSDARWAELLPLLQQCQVVRLDDCGLTEARCKDISSALRVNPALAELNLRSNELGDVGVHCVLQGLQTPSCKIQKLSLQNCCLTGAGCGVLSSTLRTLPTLQELHLSDNLLGDAGLQLLCEGLLDPQCRLEKLQLEYCSLSAASCEPLASVLRAKPDFKELTVSNNDINEAGVRVLCQGLKDSPCQLEALKLESCGVTSDNCRDLCGIVASKASLRELALGSNKLGDVGMAELCPGLLHPSSRLRTLWIWECGITAKGCGDLCRVLRAKESLKELSLAGNELGDEGARLLCETLLEPGCQLESLWVKSCSFTAACCSHFSSVLAQNRFLLELQISNNRLEDAGVRELCQGLGQPGSVLRVLWLADCDVSDSSCSSLAATLLANHSLRELDLSNNCLGDAGILQLVESVRQPGCLLEQLVLYDIAWSEEMEDRLQALEKDKPSLRVIS
On to B10, for which the “sk_ddG_kJ (SKEMPI experimental ΔΔG)” value in assay [1] is 3.43 kJ. The sk_class result in assay [2] is given as “Neutral (neutral (little effect) 4.184 kJ/mol < ΔΔG > −4.184 kJ/mol)”.

B11: 1A4Y IA459A (protein, UniProt P13489 2-461, looked up, variant I459A)
Ribonuclease inhibitor: SLDIQSLDIQCEELSDARWAELLPLLQQCQVVRLDDCGLTEARCKDISSALRVNPALAELNLRSNELGDVGVHCVLQGLQTPSCKIQKLSLQNCCLTGAGCGVLSSTLRTLPTLQELHLSDNLLGDAGLQLLCEGLLDPQCRLEKLQLEYCSLSAASCEPLASVLRAKPDFKELTVSNNDINEAGVRVLCQGLKDSPCQLEALKLESCGVTSDNCRDLCGIVASKASLRELALGSNKLGDVGMAELCPGLLHPSSRLRTLWIWECGITAKGCGDLCRVLRAKESLKELSLAGNELGDEGARLLCETLLEPGCQLESLWVKSCSFTAACCSHFSSVLAQNRFLLELQISNNRLEDAGVRELCQGLGQPGSVLRVLWLADCDVSDSSCSSLAATLLANHSLRELDLSNNCLGDAGILQLVESVRQPGCLLEQLVLYDIYWSEEMEDRLQALEKDKPSLRVAS
B11: the “sk_ddG_kJ (SKEMPI experimental ΔΔG)” value in assay [1] was 2.80 kJ. Further, in assay [2], the sk_class entry is on record as “Neutral (neutral (little effect) 4.184 kJ/mol < ΔΔG > −4.184 kJ/mol)”.

B12: 1A4Y WA375A (protein, UniProt P13489 2-461, looked up, variant W375A)
Ribonuclease inhibitor: SLDIQSLDIQCEELSDARWAELLPLLQQCQVVRLDDCGLTEARCKDISSALRVNPALAELNLRSNELGDVGVHCVLQGLQTPSCKIQKLSLQNCCLTGAGCGVLSSTLRTLPTLQELHLSDNLLGDAGLQLLCEGLLDPQCRLEKLQLEYCSLSAASCEPLASVLRAKPDFKELTVSNNDINEAGVRVLCQGLKDSPCQLEALKLESCGVTSDNCRDLCGIVASKASLRELALGSNKLGDVGMAELCPGLLHPSSRLRTLWIWECGITAKGCGDLCRVLRAKESLKELSLAGNELGDEGARLLCETLLEPGCQLESLWVKSCSFTAACCSHFSSVLAQNRFLLELQISNNRLEDAGVRELCQGLGQPGSVLRVLALADCDVSDSSCSSLAATLLANHSLRELDLSNNCLGDAGILQLVESVRQPGCLLEQLVLYDIYWSEEMEDRLQALEKDKPSLRVIS
Turning to B12, the “sk_ddG_kJ (SKEMPI experimental ΔΔG)” value in assay [1] is on record as 4.31 kJ. For the same molecule, the sk_class result in assay [2] is recorded as “Positive (positive (a hot residue) ΔΔG ≥ 4.184 kJ/mol)”.

B13: 1A4Y WA318A (protein, UniProt P13489 2-461, looked up, variant W318A)
Ribonuclease inhibitor: SLDIQSLDIQCEELSDARWAELLPLLQQCQVVRLDDCGLTEARCKDISSALRVNPALAELNLRSNELGDVGVHCVLQGLQTPSCKIQKLSLQNCCLTGAGCGVLSSTLRTLPTLQELHLSDNLLGDAGLQLLCEGLLDPQCRLEKLQLEYCSLSAASCEPLASVLRAKPDFKELTVSNNDINEAGVRVLCQGLKDSPCQLEALKLESCGVTSDNCRDLCGIVASKASLRELALGSNKLGDVGMAELCPGLLHPSSRLRTLWIWECGITAKGCGDLCRVLRAKESLKELSLAGNELGDEGARLLCETLLEPGCQLESLAVKSCSFTAACCSHFSSVLAQNRFLLELQISNNRLEDAGVRELCQGLGQPGSVLRVLWLADCDVSDSSCSSLAATLLANHSLRELDLSNNCLGDAGILQLVESVRQPGCLLEQLVLYDIYWSEEMEDRLQALEKDKPSLRVIS
Take B13: in assay [1], the “sk_ddG_kJ (SKEMPI experimental ΔΔG)” value is given as 6.19 kJ. In assay [2], the sk_class entry is recorded as “Positive (positive (a hot residue) ΔΔG ≥ 4.184 kJ/mol)”.

Values taken from paper PMC6804253, “Predicting and Experimentally Validating Hot-Spot Residues at Protein–Protein Interfaces” (ACS Chemical Biology, 2019).
